Source: IntAct's records for PubMed 17043237

B1: Pre-B-cell leukemia transcription factor-interacting protein 1 (Homo sapiens), Q96AQ6-1 (parent)
chain: MASCPDSDNSWVLAGSESLPVETLGPASRMDPESERALQAPHSPSKTDGKELAGTMDGEGTLFQTESPQSGSILTEETEVKGTLEGDVCGVEPPGPGDTVVQGDLQETTVVTGLGPDTQDLEGQSPPQSLPSTPKAAWIREEGRCSSSDDDTDVDMEGLRRRRGREAGPPQPMVPLAVENQAGGEGAGGELGISLNMCLLGALVLLGLGVLLFSGGLSESETGPMEEVERQVLPDPEVLEAVGDRQDGLREQLQAPVPPDSVPSLQNMGLLLDKLAKENQDIRLLQAQLQAQKEELQSLMHQPKGLEEENAQLRGALQQGEAFQRALESELQQLRARLQGLEADCVRGPDGVCLSGGRGPQGDKAIREQGPREQEPELSFLKQKEQLEAEAQALRQELERQRRLLGSVQQDLERSLQDASRGDPAHAGLAELGHRLAQKLQGLENWGQDPGVSANASKAWHQKSHFQNSREWSGKEKWWDGQRDRKAEHWKHKKEESGRERKKNWGGQEDREPAGRWKEGRPRVEESGSKKEGKRQGPKEPPRKSGSFHSSGEKQKQPRWREGTKDSHDPLPSWAELLRPKYRAPQGCSGVDECARQEGLTFFGTELAPVRQQELASLLRTYLARLPWAGQLTKELPLSPAFFGEDGIFRHDRLRFRDFVDALEDSLEEVAVQQTGDDDEVDDFEDFIFSHFFGDKALKKRSGKKDKHSQSPRAAGPREGHSHSHHHHHRG

Variants of: B1
Details: with esr1_human ESR1, P03372
esr1_human ESR1, P03372, sequence (P03372 whole entry): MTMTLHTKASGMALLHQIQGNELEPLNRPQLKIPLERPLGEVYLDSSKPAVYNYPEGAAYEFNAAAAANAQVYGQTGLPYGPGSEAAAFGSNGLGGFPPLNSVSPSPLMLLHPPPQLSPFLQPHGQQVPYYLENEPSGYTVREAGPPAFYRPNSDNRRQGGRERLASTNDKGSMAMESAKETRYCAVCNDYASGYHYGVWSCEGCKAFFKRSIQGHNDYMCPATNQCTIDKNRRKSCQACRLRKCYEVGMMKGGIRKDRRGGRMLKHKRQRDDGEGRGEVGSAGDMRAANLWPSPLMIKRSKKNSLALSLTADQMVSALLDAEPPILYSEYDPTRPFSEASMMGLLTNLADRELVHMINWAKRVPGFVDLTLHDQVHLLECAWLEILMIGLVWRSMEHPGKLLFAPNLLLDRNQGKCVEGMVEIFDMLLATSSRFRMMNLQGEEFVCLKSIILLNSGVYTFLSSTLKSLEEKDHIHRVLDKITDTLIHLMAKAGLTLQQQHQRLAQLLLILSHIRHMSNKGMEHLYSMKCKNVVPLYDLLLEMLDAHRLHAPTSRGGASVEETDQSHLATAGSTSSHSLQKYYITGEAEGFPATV

Variant	effect of a mutation on the interaction
L615A;L618A;L619A	disrupting interaction strength
